Data from article PMC6890786, “Pseudomonas aeruginosa uses multiple receptors for adherence to laminin during infection of the respiratory tract and skin wounds” (Scientific Reports, 2019).

B1: recombinant OprD of P. aeruginosa PAO1, 6xHis-tagged (natural protein)
chain: DAFVSDQAEAKGFIEDSSLDLLLRNYYFNRDGKSGSGDRVDWTQGFLTTYESGFTQGTVGFGVDAFGYLGLKLDGTSDKTGTGNLPVMNDGKPRDDYSRAGGAVKVRISKTMLKWGEMQPTAPVFAAGGSRLFPQTATGFQLQSSEFEGLDLEAGHFTEGKEPTTVKSRGELYATYAGETAKSADFIGGRYAITDNLSASLYGAELEDIYRQYYLNSNYTIPLASDQSLGFDFNIYRTNDEGKAKAGDISNTTWSLAAAYTLDAHTFTLAYQKVHGDQPFDYIGFGRNGSGAGGDSIFLANSVQYSDFNGPGEKSWQARYDLNLASYGVPGLTFMVRYINGKDIDGTKMSDNNVGYKNYGYGEDGKHHETNLEAKYVVQSGPAKDLSFRIRQAWHRANADQGEGDQNEFRLIVDYPLSIL
notes: OprD (porin D, OccD1) of P. aeruginosa PAO1; open reading frame amplified from PAO1 genomic DNA and cloned into pET26(b)+; Labelled with 10 nm colloidal gold for TEM; also called porin D; OccD1; source: E. coli BL21(DE3), purified (Ni-NTA)
B2: recombinant Paf of P. aeruginosa, 6xHis-tagged (natural protein)
chain: EDGKRLRIGITLHPYYSYVSNIVGDKAEVVPLIPAGFNPHAYEPRAEDIKRIGTLDVVVLNGVGHDDFAERMIASSEKPGIPVIEANAKVPLLAATGMAARGAGKVVNPHTFLSISASITQVNTIARELGKLDPANAKAYTRNARAYAKRLRALRADALARLNKAPAADFRVATIHGAYDYLLREFGLEVTAVVEPAHGIEPSPSQLKKTIDQLKALDVKVIFSEIDFPSTYVETIQRESGVKLYSLSHISYGDYSAGKYEEEMARNLDTVVRAIQESGA
B3: recombinant EstA of P. aeruginosa PAO1, 6xHis-tagged (natural protein)
chain: APSPYSTLVVFGDSLSDAGQFPDPAGPAGSTSRFTNRVGPTYQNGSGEIFGPTAPMLLGNQLGIAPGDLAASTSPVNAQQGIADGNNWAVGGYRTDQIYDSITAANGSLIERDNTLLRSRDGYLVDRARQGLGADPNALYYITGGGNDFLQGRILNDVQAQQAAGRLVDSVQALQQAGARYIVVWLLPDLGLTPATFGGPLQPFASQLSGTFNAELTAQLSQAGANVIPLNIPLLLKEGMANPASFGLAADQNLIGTCFSGNGCTMNPTYGINGSTPDPSKLLFNDSVHPTITGQRLIADYTYSLLSAPWELTLLPEMAHGTLRAYQDELRSQWQADWENWQNVGQWRGFVGGGGQRLDFDSQDSAASGDGNGYNLTLGGSYRIDEAWRAGVAAGFYRQKLEAGAKDSDYRMNSYMASAFVQYQENRWWADAALTGGYLDYDDLKRKFALGGGERSEKGDTNGHLWAFSARLGYDIAQQADSPWHLSPFVSADYARVEVDGYSEKGASATALDYDDQKRSSKRLGAGLQGKYAFGSDTQLFAEYAHEREYEDDTQDLTMSLNSLPGNRFTLEGYTPQDHLNRVSLGFSQKLAPELSLRGGYNWRKGEDDTQQSVSLALSLDF
notes: EstA, autotransporter esterase of P. aeruginosa PAO1; open reading frame amplified from PAO1 genomic DNA and cloned into pET26(b)+; Labelled with 10 nm colloidal gold for TEM; source: E. coli BL21(DE3), purified (Ni-NTA)

Tests used:
Experiment in all cases: BLI; OctetRed96; bacterial proteins immobilised on AR2G sensors by amino coupling; laminin-111 as analyte, 1.63 to 100 nM in PBS; 30 °C
[1] = target: recombinant PA3923 of P. aeruginosa PAO1, 6xHis-tagged (P. aeruginosa PAO1) (UniProt Q9HX90)
[2] = target: recombinant OprG of P. aeruginosa PAO1, 6xHis-tagged (P. aeruginosa PAO1) (UniProt Q9HWW1)
[3] = target: T1, Engelbreth-Holm-Swarm murine sarcoma laminin-111 (mouse, UniProt P19137 25-3083; P02469 22-1786; P02468 34-1607); conditions: both partners purified
T1 construct: laminin alpha chain of laminin-111 (laminin subunit alpha-1), mouse; carries LG1-5 at its C-terminal end; laminin beta chain of laminin-111 (laminin subunit beta-1), mouse; laminin gamma chain of laminin-111 (laminin subunit gamma-1), mouse; Heterotrimer alpha/beta/gamma; Labelled with colloidal gold for the TEM experiment; also called L2020; source: bought: Sigma-Aldrich (L2020), …

Row | Molecule | Kd [1] [nM] | Kd [2] [nM] | Kd [3] [nM]
1 | Engelbreth-Holm-Swarm murine sarcoma laminin-111 (from UniProt P19137 25-3083; P02469 22-1786; P02468 34-1607) (complex) | 6.9 | 4.7 | –
2 | B1 | – | – | 22
3 | B2 | – | – | 2.8
4 | B3 | – | – | 1.7
